Data taken from patent US8034572B2, “Receptor for GDNF family ligands” (priority 2006, dated 2011).

Assays:
[1] = SPR (IAsys): GFLs interaction with heparin-BSA cuvette; format: binding
Method: The affinities of GFLs for heparin and heparin-like molecules (e.g. syndecan-3) were determined by plasmon surface resonance using the IAsys system (Affinity Sensors, Cambridge, UK). Planar aminosilane cuvettes (Affinity Sensors) were used for protein coupling to avoid problems with mass transport, which occur frequently with matrix surfaces. In the initial approach, heparin-BSA was immobilized to the cuvette surface using the manufacturer's instructions and different ligand concentrations were used to determine association (ka) and dissociation (kdis) rates using the IAsys Fastfit software. The dissociation constant Kd was determined from the binding dynamics as […], or from equilibrium response (R) using a simple Langmuir fit: R=(Rmax*C)/(Kd+C), where C is the ligand concentration. […] The dissociation constants were determined from binding dynamics and equilibrium response. The same cuvettes were used to test binding of heparan sulfate proteoglycan syndecan-3, which was purified as an ectodomain from early postnatal rat brains by HB-GAM affinity chromatography (Raulo et al., 1994).
Binding was analyzed using IAsys cuvettes with immobilized heparin-BSA or GFLs. The dissociation constant Kd was determined from dynamics of association and dissociation (Kd=kdis/ka), or from equilibrium response R (R=(Rmax*C)/(Kd+C), where C is ligand concentration).

[2] = test system: rat embryonic hippocampal neurons; assay: Neurite outgrowth assay in E17 rat hippocampal neurons; format: cell-based
Method: Hippocampi were dissected from E17 embryonic rat brains under the microscope and transferred to the preparation media (HBBS without Ca^2+ and Mg^2+ supplemented with 1 mM sodium pyruvate (Gibco) and buffered by 10 mM Hepes pH 7.2), then partially digested by papain and triturated in the preparation media supplemented with DNase I. Cells were washed with HBBS containing Ca^2+ and Mg^2+ and transferred to the growth media (Neurobasal media with B27 supplement, 2 mM L-glutamine, 25 μM glutamic acid and penicillin and streptomycin (Gibco)). For enzymatic treatments neurons were kept in the growth media supplemented with 0.2% BSA at +37° C. for one hour. After the treatment cells in the same media were seeded on the protein-coated cover slips (see above) and after 10 min, the media was changed for B27-free media. Neurons were incubated at +37° C., 5% CO2 for 18 hours.
For immunocytochemistry neurons were washed with PBS and fixed with 4% PFA, permeabilized with 0.1% Triton X-100 and stained with rabbit polyclonal antiserum to Protein Gene Product 9.5 (Affiniti), neuron-specific Class III tubulin-βIII clone Tuj1 antibodies (BABCO) or with antibodies against the neurofilament triplet, 13AA8 (Arumäe et al., 1993). Secondary antibodies were goat anti-rabbit or anti-mouse Alexa488-conjugated (Molecular Probes).
The immunostained cultures were viewed using the ×20 objective of a Zeiss Axioplan 2 fluorescent microscope (Zeiss). Neurons with at least two times longer than cell body diameter processes were considered process-bearing. Three cover slips were used in parallel and 100 neurons per cover slip were counted. Results were derived from 3 to 5 independent experiments.

[3] = Binding of ^125I-labeled GFLs to heparin-sepharose column, step NaCl elution
Method: GFL iodination was performed as described (Lindahl et al., 2001). Heparin-sepharose column (Amersham Biosciences) chromatography was performed to assess GFL binding to heparin. GDNF, ARTN, NRTN and PSPN were purchased from PeproTech, Ltd. or R&D Systems, Inc. GFLs were enzymatically labeled with carrier-free [^125I]NaI (Amersham Biosciences) by the lactoperoxidase method to a specific activity of 100000-200000 cpm/ng as described elsewhere (Lindahl et al., 2001). 15000-20000 cpm of iodinated GFLs, together with 10 μg of the same unlabeled protein as a carrier, were injected into a 1 ml heparin-sepharose column (Amersham Biosciences) in phosphate buffer pH 7.2 containing 100 mM NaCl and 10 mg/ml of BSA. After washing with 5 volumes of the same buffer, iodinated GFLs were eluted from the column by step elution (2 ml) with increasing NaCl concentration. The resulting fractions were counted on Rackbeta 1214 (LKB/Wallac) scintillation counter.

B1: GDNF: Glial cell line-derived neurotrophic factor, secreted growth factor, GDNF family ligand (protein)
chain: SPDKQMAVLPRRERNRQAAAANPENSRGKGRRGQRGKNRGCVLTAIHLNVTDLGLGYETKEELIFRYCSGSCDAAETTYDKILKNLSRNRRLVSDKVGQACCRPIAFDDDLSFLDDNLVYHILRKHSAKRCGCI
[1]; GFL in solution
  ka (×10^−5) (M^−1s^−1): 3.7 (×10^−5) M^−1s^−1
  kdis: 0.017 s⁻¹
[1]; from dynamics
  Kd = kdis/ka: 47.3 ± 9.9 nM
[1]; from equilibrium response
  Kd: 51.3 ± 3.6 nM
[2]; E17 rat hippocampal neurons, 18 hours
  neurite outgrowth on immobilized protein: stimulated neurite outgrowth
[2]; soluble GDNF added to neurons grown on BSA-matrix
  neurite outgrowth with soluble protein: failed to induce neurites
[3]; ^125I-GFLs, step NaCl gradient
  NaCl concentration at elution from heparin-sepharose column: 0.75 to 1 M
[3]; ^125I-labeled GFLs
  binding to heparin-sepharose column: bind strongly to heparin
